Data published in patent EP2814500B1.

Molecular target: mouse glycophorin-A (GYPA) on the mouse erythrocyte surface (mouse) (UniProt P14220)
Test: equilibrium binding to mouse erythrocytes, flow cytometry, one-site binding fit

ERY1-OVA (ovalbumin chemically conjugated with ERY1 peptide through SMCC), sequence (P01012 2-386, form in doubt): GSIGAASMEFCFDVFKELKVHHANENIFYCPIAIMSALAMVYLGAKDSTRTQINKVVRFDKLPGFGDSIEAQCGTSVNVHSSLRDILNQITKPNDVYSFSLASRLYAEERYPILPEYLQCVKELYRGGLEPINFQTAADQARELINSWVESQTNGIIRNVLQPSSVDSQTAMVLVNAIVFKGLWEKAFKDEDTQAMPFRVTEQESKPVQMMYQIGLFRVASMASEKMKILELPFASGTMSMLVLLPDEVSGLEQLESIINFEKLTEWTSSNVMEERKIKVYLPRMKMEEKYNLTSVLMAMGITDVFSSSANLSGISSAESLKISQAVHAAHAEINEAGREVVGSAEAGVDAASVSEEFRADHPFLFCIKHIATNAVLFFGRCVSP

## ERY1-OVA (ovalbumin chemically conjugated with ERY1 peptide through SMCC) (from UniProt P01012 2-386)
  Kd: 6.2 nM
